The supplement of paper PMC9732359
± gives the uncertainty stated by the source.

Assay: protein stability index of a GFP-peptide fusion (yeast GPS) (PSI 1-4); higher = more stable; sorted into four equal gates, so the index is relative within each strain
Summary of the method: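 Tiled yeast protein peptides of 17 residues were each joined downstream of GFP, on plasmids that also express Cherry. The pooled library was maintained in yeast, and mid-log cultures in leucine-free medium were sorted into four equal gates on the GFP/Cherry ratio. Plasmids from every gate were amplified by PCR and sequenced on Illumina, with barcodes linking reads to strains. The protein stability index of a peptide is its gate-number-weighted read frequency summed over the gates.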

TLPGDDELDQEILNLST [RPT5]
protein stability index (doa10∆): 3.32 ± 0.12
protein stability index (pdr5∆): 3.27 ± 0.12
protein stability index (san1∆): 3.58 ± 0.072
protein stability index (ubr1∆): 3.45 ± 0.098

DKYHEQWIKFLLHTLYL [SSN8]
protein stability index (doa10∆): 2.62 ± 0.1
protein stability index (pdr5∆): 2.2 ± 0.076
protein stability index (san1∆): 1.93 ± 0.13
protein stability index (ubr1∆): 2.43 ± 0.052

ARKSKEEREAAASKVKL [RPC53]
protein stability index (doa10∆): 3.16 ± 0.22

SPTENGVFDPASYSKYL [RPL22B]
protein stability index (doa10∆): 3.18 ± 0.074
protein stability index (pdr5∆): 3.25 ± 0.083
protein stability index (san1∆): 3.05 ± 0.066
protein stability index (ubr1∆): 2.87 ± 0.06

NGGKFSKSNLIHNYDSK [RGR1]
protein stability index (doa10∆): 2.4 ± 0.058
protein stability index (pdr5∆): 2.71 ± 0.06
protein stability index (san1∆): 3.11 ± 0.047
protein stability index (ubr1∆): 2.7 ± 0.064

SVFYTILRDYGPQEAAN [RPO31]
protein stability index (doa10∆): 3.42 ± 0.11
protein stability index (pdr5∆): 3.25 ± 0.094
protein stability index (san1∆): 3.27 ± 0.071
protein stability index (ubr1∆): 2.88 ± 0.069

IGVIAGGGRVDKPLLKA [RPL2A]
protein stability index (doa10∆): 3.2 ± 0.088
protein stability index (pdr5∆): 3.16 ± 0.09
protein stability index (san1∆): 3.05 ± 0.11
protein stability index (ubr1∆): 2.98 ± 0.066

TDGADENVQIGEDFMEV [SRB4]
protein stability index (doa10∆): 2.66 ± 0.12
protein stability index (pdr5∆): 3.35 ± 0.17
protein stability index (ubr1∆): 3.1 ± 0.19

WVFSYLRWFELKPKLYY [SIR3]
protein stability index (doa10∆): 1.93 ± 0.081
protein stability index (pdr5∆): 1.96 ± 0.071
protein stability index (san1∆): 2.5 ± 0.19
protein stability index (ubr1∆): 2.49 ± 0.054

PAFSFGAKPEEKKDDNS [YJL041W/NSP1]
protein stability index (doa10∆): 3.27 ± 0.16
protein stability index (pdr5∆): 3.26 ± 0.13
protein stability index (san1∆): 2.98 ± 0.24
protein stability index (ubr1∆): 3.29 ± 0.13

YSKNNPNLLFSMCGFEV [PRP8]
protein stability index (doa10∆): 2.96 ± 0.093
protein stability index (pdr5∆): 2.69 ± 0.093
protein stability index (san1∆): 2.17 ± 0.076
protein stability index (ubr1∆): 2.4 ± 0.092

EILTNQQRGITYLNEVL [YGR119C/NUP57]
protein stability index (doa10∆): 2.7 ± 0.068
protein stability index (pdr5∆): 3.09 ± 0.079
protein stability index (san1∆): 3.12 ± 0.061
protein stability index (ubr1∆): 2.71 ± 0.066

TYVITKNGKIYLKHNSI [RET1]
protein stability index (doa10∆): 2.72 ± 0.053
protein stability index (pdr5∆): 2.54 ± 0.046
protein stability index (san1∆): 2.45 ± 0.067
protein stability index (ubr1∆): 2.64 ± 0.028

PLSRINENENFGYDIPL [YML103C/NUP188]
protein stability index (doa10∆): 3.02 ± 0.12
protein stability index (pdr5∆): 3.14 ± 0.095
protein stability index (san1∆): 3.15 ± 0.064
protein stability index (ubr1∆): 3.08 ± 0.077

APEQQVQQFAQLPVGFK [UBP6]
protein stability index (doa10∆): 2.92 ± 0.08
protein stability index (pdr5∆): 2.99 ± 0.052
protein stability index (san1∆): 3.09 ± 0.059
protein stability index (ubr1∆): 2.99 ± 0.037

KKNDMNTSAKNKNGENK [SIR4]
protein stability index (doa10∆): 2.59 ± 0.06
protein stability index (pdr5∆): 2.69 ± 0.061
protein stability index (san1∆): 3.03 ± 0.054
protein stability index (ubr1∆): 3.12 ± 0.066

AASLIMPFLDNQVNFKN [PRE7]
protein stability index (pdr5∆): 2.7 ± 0.081
protein stability index (san1∆): 1.31 ± 0.17
protein stability index (ubr1∆): 1.39 ± 0.093

QNNNTLGGGGLFGQSQQ [YGR119C/NUP57]
protein stability index (doa10∆): 3.43 ± 0.13
protein stability index (pdr5∆): 3.27 ± 0.29
protein stability index (san1∆): 3.18 ± 0.12
protein stability index (ubr1∆): 3.07 ± 0.087

SKGSFINIAQMSACVGQ [RPO21]
protein stability index (doa10∆): 1.44 ± 0.059
protein stability index (pdr5∆): 1.61 ± 0.053
protein stability index (san1∆): 1.3 ± 0.082
protein stability index (ubr1∆): 1.67 ± 0.051

YNPKMIDDRDYVGNKRL [RET1]
protein stability index (ubr1∆): 3.49 ± 0.26

STSVGWKYEDVVAKLED [RPL16B]
protein stability index (doa10∆): 3.31 ± 0.073
protein stability index (pdr5∆): 2.28 ± 0.094
protein stability index (san1∆): 2.48 ± 0.11
protein stability index (ubr1∆): 3.33 ± 0.075

YFWHKIWRKVPGDVLDK [SNU114]
protein stability index (doa10∆): 1.15 ± 0.095
protein stability index (pdr5∆): 1.08 ± 0.064
protein stability index (san1∆): 1.51 ± 0.23
protein stability index (ubr1∆): 1.22 ± 0.094

KDKGVYVVTSDEHPKTL [SIR2]
protein stability index (doa10∆): 2.78 ± 0.076
protein stability index (pdr5∆): 3.24 ± 0.075
protein stability index (san1∆): 3.25 ± 0.055
protein stability index (ubr1∆): 2.98 ± 0.079

RKTWKRQNTLSLWRYRK [RPL15A]
protein stability index (doa10∆): 3.45 ± 0.083
protein stability index (pdr5∆): 3.1 ± 0.074
protein stability index (san1∆): 3.3 ± 0.052
protein stability index (ubr1∆): 3.36 ± 0.046

IERYPSKVTKKHGAKKV [RPL27B]
protein stability index (doa10∆): 3.26 ± 0.074
protein stability index (pdr5∆): 3.49 ± 0.095
protein stability index (san1∆): 3.43 ± 0.061
protein stability index (ubr1∆): 3.31 ± 0.059

QRGKWNLKYLDNSNVMT [RGR1]
protein stability index (doa10∆): 2.37 ± 0.093
protein stability index (pdr5∆): 2.49 ± 0.084
protein stability index (san1∆): 2.58 ± 0.077
protein stability index (ubr1∆): 1.95 ± 0.073

VDFSKYNTNFNLLLREL [SRP72]
protein stability index (doa10∆): 2.99 ± 0.1
protein stability index (pdr5∆): 3.24 ± 0.12
protein stability index (san1∆): 2.97 ± 0.1
protein stability index (ubr1∆): 3.31 ± 0.056

TYKYFEVILVDPQHKAI [RPL15A]
protein stability index (doa10∆): 2.32 ± 0.083
protein stability index (pdr5∆): 2.09 ± 0.074
protein stability index (san1∆): 2.5 ± 0.15
protein stability index (ubr1∆): 2.63 ± 0.12

NNKFANKIIPNVGLCIT [RPC25]
protein stability index (doa10∆): 2.71 ± 0.07
protein stability index (pdr5∆): 3.04 ± 0.082
protein stability index (san1∆): 2.94 ± 0.054
protein stability index (ubr1∆): 3 ± 0.081

KKKRKKKNKSAIDGIFG [RMP1]
protein stability index (doa10∆): 2.47 ± 0.045
protein stability index (pdr5∆): 2.83 ± 0.045
protein stability index (san1∆): 2.81 ± 0.042
protein stability index (ubr1∆): 3.03 ± 0.038

EFEYDDEPDEQGNPKKR [CYT1]
protein stability index (doa10∆): 3.21 ± 0.076
protein stability index (pdr5∆): 3.28 ± 0.073
protein stability index (san1∆): 3.04 ± 0.07
protein stability index (ubr1∆): 3.15 ± 0.07

NANDETTAVEDEDDDLD [RPB4]
protein stability index (doa10∆): 3.47 ± 0.1
protein stability index (pdr5∆): 3.13 ± 0.1
protein stability index (san1∆): 3.25 ± 0.093
protein stability index (ubr1∆): 3.25 ± 0.092

TLSYDDISAAIVHSSDG [DLS1]
protein stability index (doa10∆): 2.65 ± 0.046
protein stability index (pdr5∆): 2.82 ± 0.053
protein stability index (san1∆): 2.72 ± 0.04
protein stability index (ubr1∆): 2.66 ± 0.046

MANLSQIYTQRAYMRPL [SCL1]
protein stability index (doa10∆): 1.66 ± 0.06
protein stability index (pdr5∆): 1.46 ± 0.074
protein stability index (san1∆): 1.47 ± 0.12
protein stability index (ubr1∆): 1.54 ± 0.043

SSRTKFWSFLDSLIFKD [YJL039C/NUP192]
protein stability index (doa10∆): 2.78 ± 0.18
protein stability index (pdr5∆): 2.87 ± 0.17
protein stability index (ubr1∆): 2.72 ± 0.12

AKKLPNGNWEVGVHIAD [DIS3]
protein stability index (doa10∆): 1.61 ± 0.16
protein stability index (pdr5∆): 2.25 ± 0.15
protein stability index (san1∆): 2.51 ± 0.19
protein stability index (ubr1∆): 3.25 ± 0.16

QMSLEANVVDITNDWEQ [YJR042W/NUP85]
protein stability index (doa10∆): 2.65 ± 0.077
protein stability index (pdr5∆): 2.77 ± 0.064
protein stability index (san1∆): 2.92 ± 0.058
protein stability index (ubr1∆): 2.87 ± 0.058

GMNNASAGLFGSKPAGG [YGL172W/NUP49]
protein stability index (doa10∆): 3.23 ± 0.086
protein stability index (pdr5∆): 3.32 ± 0.086
protein stability index (san1∆): 2.96 ± 0.09
protein stability index (ubr1∆): 3.23 ± 0.053

MQSTSPAVKQWDLLPEP [SWI1]
protein stability index (doa10∆): 2.73 ± 0.19
protein stability index (pdr5∆): 1.5 ± 0.11
protein stability index (san1∆): 1.36 ± 0.27
protein stability index (ubr1∆): 1.07 ± 0.14

DDFTNELKAELDRYKRE [SEM1]
protein stability index (doa10∆): 3.09 ± 0.17
protein stability index (pdr5∆): 3.36 ± 0.14
protein stability index (san1∆): 2.97 ± 0.11
protein stability index (ubr1∆): 3.47 ± 0.24

KFFHNGMIYNKLFVSKE [FAS2]
protein stability index (doa10∆): 2.87 ± 0.089
protein stability index (pdr5∆): 2.54 ± 0.086
protein stability index (san1∆): 2.38 ± 0.12
protein stability index (ubr1∆): 2.58 ± 0.077

LVPQLGHVGSVQISNIP [PRP8]
protein stability index (doa10∆): 2.32 ± 0.1
protein stability index (pdr5∆): 2.3 ± 0.065
protein stability index (san1∆): 1.91 ± 0.12
protein stability index (ubr1∆): 2.72 ± 0.089

NTLLVTGPFKVNGVPLR [RPL6B]
protein stability index (doa10∆): 2.74 ± 0.12
protein stability index (pdr5∆): 2.66 ± 0.082
protein stability index (san1∆): 2.63 ± 0.081
protein stability index (ubr1∆): 2.74 ± 0.045

TYVLNTWTNSKIFIKDP [YML103C/NUP188]
protein stability index (doa10∆): 2 ± 0.056
protein stability index (pdr5∆): 2.15 ± 0.046
protein stability index (san1∆): 2.3 ± 0.058
protein stability index (ubr1∆): 2.23 ± 0.034

TPSSNSNSSELEPDYQA [MED1]
protein stability index (doa10∆): 2.74 ± 0.13
protein stability index (pdr5∆): 2.96 ± 0.16
protein stability index (san1∆): 3.35 ± 0.055
protein stability index (ubr1∆): 3.43 ± 0.1

VRHGRAGATTSRFIPLK [RPS15]
protein stability index (doa10∆): 2.62 ± 0.076
protein stability index (pdr5∆): 2.56 ± 0.062
protein stability index (san1∆): 2.89 ± 0.042
protein stability index (ubr1∆): 3.06 ± 0.064

VEESSEKKQKTESQDVE [DPB4]
protein stability index (doa10∆): 2.8 ± 0.13
protein stability index (pdr5∆): 3.33 ± 0.12
protein stability index (san1∆): 3.23 ± 0.13
protein stability index (ubr1∆): 3.03 ± 0.07

SAFKFIHTQLSEIKQQI [YJL039C/NUP192]
protein stability index (doa10∆): 2.33 ± 0.1
protein stability index (pdr5∆): 2.62 ± 0.087
protein stability index (san1∆): 2.82 ± 0.12
protein stability index (ubr1∆): 2.83 ± 0.061

IKKIVADLKKGKDLSPA [QCR2]
protein stability index (doa10∆): 3.5 ± 0.24
protein stability index (pdr5∆): 3.15 ± 0.2
protein stability index (san1∆): 3.11 ± 0.26

NTKEIAVDLEHHDYRSY [RRP6]
protein stability index (doa10∆): 2.93 ± 0.06
protein stability index (pdr5∆): 3.07 ± 0.048
protein stability index (san1∆): 3.15 ± 0.056
protein stability index (ubr1∆): 3.054 ± 0.03

FHKQQAHFWKPVLNLDK [RPL28]
protein stability index (doa10∆): 2.93 ± 0.067
protein stability index (pdr5∆): 3.19 ± 0.056
protein stability index (san1∆): 2.76 ± 0.057
protein stability index (ubr1∆): 2.93 ± 0.052
